Reference: PMC11297931 (2024)

T1: doubly T-loop phosphorylated Cdk7/Cyclin H/Mat1_(230-309) ternary complex (human, UniProt P50613 2-346; P51946 1-323; P51948 230-309, phosphoserine at 164; phosphothreonine at 170 | M1 acetylated)
T1 chain 1: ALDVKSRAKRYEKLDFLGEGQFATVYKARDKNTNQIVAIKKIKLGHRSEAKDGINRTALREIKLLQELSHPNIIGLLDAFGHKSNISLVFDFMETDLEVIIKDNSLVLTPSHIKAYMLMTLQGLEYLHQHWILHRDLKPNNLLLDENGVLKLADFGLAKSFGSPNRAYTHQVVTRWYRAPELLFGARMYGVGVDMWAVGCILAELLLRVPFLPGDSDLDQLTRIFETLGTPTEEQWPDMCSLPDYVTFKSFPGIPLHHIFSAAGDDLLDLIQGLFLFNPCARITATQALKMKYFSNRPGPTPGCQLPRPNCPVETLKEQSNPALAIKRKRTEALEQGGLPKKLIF
T1 chain 2: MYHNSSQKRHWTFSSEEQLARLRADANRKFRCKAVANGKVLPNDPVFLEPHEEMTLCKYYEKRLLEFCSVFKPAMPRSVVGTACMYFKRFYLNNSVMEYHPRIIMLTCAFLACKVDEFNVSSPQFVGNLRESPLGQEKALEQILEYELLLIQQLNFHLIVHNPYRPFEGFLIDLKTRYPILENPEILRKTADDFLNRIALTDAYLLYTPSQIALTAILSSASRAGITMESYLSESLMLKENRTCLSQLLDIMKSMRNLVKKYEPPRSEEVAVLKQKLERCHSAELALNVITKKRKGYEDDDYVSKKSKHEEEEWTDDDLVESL
T1 chain 3: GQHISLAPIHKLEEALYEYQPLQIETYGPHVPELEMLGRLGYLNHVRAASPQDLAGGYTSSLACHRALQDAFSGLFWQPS


Key:
Test in all cases: SPR
[1] = molecular target: Cdk7(S164A)/Cyclin H binary complex (human, UniProt P50613 2-346; P51946 1-323, S164A, phosphothreonine at 170)
[2] = molecular target: Cdk7(S164E)/Cyclin H binary complex (human, UniProt P50613 2-346; P51946 1-323, S164E, phosphothreonine at 170)
[3] = molecular target: T1, doubly T-loop phosphorylated …

| Kd [1] [nM] | Kd [2] [nM] | Kd [3] [nM] | Binder |
| --- | --- | --- | --- |
| 10.8 | 7.3 | – | MBP-Mat1_(230-309) (domain or fragment) GQHISLAPIHKLEEALYEYQPLQIETYGPHVPELEMLGRLGYLNHVRAASPQDLAGGYTSSLACHRALQDAFSGLFWQPS |
| – | – | 0.6 | VHH_(RD7-04), form for biochemical studies (VHH) VHH: QVQLVESGGGLVQPGGSLRLSCVASGFTFKNFYMGWVRQAPDKGLEWVATINSGGEIQSYADSVKGRFTISRDNAKNTLYLQMNNLRPEDTAVYYCSKQSSTPAKGQGTQVTVSS |
